Paper PMC8346855

Target: angiotensin II-bound mouse angiotensin II type 1 receptor F117W Δ324 (mouse | human)
Assay: cross-linking + other: high-mass MALDI-MS; angiotensin II-bound AT1R (angII-AT1R), 5 µM, mixed with partner protein at various concentrations, 1 h at room temperature, BS(PEG)9 cross-linking, 1.0 µM β-Gal as internal standard; 20 mM Hepes pH 7.5, 40 mM NaCl, 0.01% LMNG; Ka = 1/Kd

B1: mini-Gq (domain or fragment)
chain: GIEKQLQKDKQVYRATHRLLLLGADNSGKSTIVKQMRILHGGSGGSGGTSGIFETKFQVDKVNFHMFDVGGQRDERRKWIQCFNDVTAIIFVVDSSDYNRLQEALNDFKSIWNNRWLRTISVILFLNKQDLLAEKVLAGKSKIEDYFPEFARYTTPEDATPEPGEDPRVTRAKYFIRDEFLRISTASGDGRHYCYPHFTCAVDTENARRIFNDCKDIILQMNLREYNLV
Ka: 480000 M⁻¹
